From paper PMC2929994 (Molecular Biology of the Cell, 2010) come the findings set out here.

Like-named read-outs stand apart in the source and are kept apart here.

What all share (assay): split reporter
Series [1] concerns the target Rsr1 GTPase, split-YFP fusion for BiFC (YFP^N-Rsr1 / YFP^C-Rsr1) (S. cerevisiae) (UniProt P13856).
Series [2] has the same target. The source holds these as a separate data set.
Series [3] concerns the molecule itself.

Take “Rsr1-7^K260–264S, split-YFP fusion for BiFC (from UniProt P13856 1-272) (natural protein)”: the percent of unbudded cells with BiFC signal in series [1] is less than 2%; in series [2], 1.7%.

B1: Rsr1^K16N, split-YFP fusion for BiFC (natural protein, S. cerevisiae, UniProt P13856 1-272, looked up)
chain: MRDYKLVVLGAGGVGNSCLTVQFVQGVYLDTYDPTIEDSYRKTIEIDNKVFDLEILDTAGIAQFTAMRELYIKSGMGFLLVYSVTDRQSLEELMELREQVLRIKDSDRVPMVLIGNKADLINERVISVEEGIEVSSKWGRVPFYETSALLRSNVDEVFVDLVRQIIRNEMESVAVKDARNQSQQFSKIESPSTRLPSSAKQDTKQSNNKQSSKGLYNKSSQGQAKVKQSTPVNEKHKPSHAVPKSGSSNRTGISATSQQKKKKKNASTCTIL
Turning to B1, the “percent of unbudded cells with BiFC signal” value in series [3] turned out to be 84%.
